No end group written: not given here.
T1: ER (Homo sapiens, UniProt P03372, G400V)
T1 construct: Full-length ER and TR2 in eukaryotic expression vectors (pSG5-ER and pCMV-TR2) were co-transfected; expressed in transfected cells; host or cells: PC-3 and H1299 (pSG5-ER transfected)
T1 sequence (P03372 1-595 G400V): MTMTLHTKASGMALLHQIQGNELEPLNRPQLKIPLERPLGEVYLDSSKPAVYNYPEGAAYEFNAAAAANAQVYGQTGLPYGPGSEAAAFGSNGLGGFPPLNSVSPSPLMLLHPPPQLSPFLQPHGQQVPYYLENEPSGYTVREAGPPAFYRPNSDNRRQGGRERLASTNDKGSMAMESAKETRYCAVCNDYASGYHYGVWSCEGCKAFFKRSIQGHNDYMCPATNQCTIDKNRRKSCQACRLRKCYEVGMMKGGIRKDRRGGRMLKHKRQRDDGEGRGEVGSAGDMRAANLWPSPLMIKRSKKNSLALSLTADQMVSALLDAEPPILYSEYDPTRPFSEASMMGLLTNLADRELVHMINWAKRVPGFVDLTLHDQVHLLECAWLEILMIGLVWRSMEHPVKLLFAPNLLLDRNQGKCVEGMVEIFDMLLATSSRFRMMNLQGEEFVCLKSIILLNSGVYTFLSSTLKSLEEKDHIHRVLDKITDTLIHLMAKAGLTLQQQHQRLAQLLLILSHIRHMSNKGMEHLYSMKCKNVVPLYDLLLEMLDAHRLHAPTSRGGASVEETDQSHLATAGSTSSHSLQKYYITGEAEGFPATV

T2: PR (Homo sapiens, UniProt P06401)
T2 construct: expressed in transfected cells; host or cells: H1299 (pSG5-PR)
T2 sequence (P06401 1-933): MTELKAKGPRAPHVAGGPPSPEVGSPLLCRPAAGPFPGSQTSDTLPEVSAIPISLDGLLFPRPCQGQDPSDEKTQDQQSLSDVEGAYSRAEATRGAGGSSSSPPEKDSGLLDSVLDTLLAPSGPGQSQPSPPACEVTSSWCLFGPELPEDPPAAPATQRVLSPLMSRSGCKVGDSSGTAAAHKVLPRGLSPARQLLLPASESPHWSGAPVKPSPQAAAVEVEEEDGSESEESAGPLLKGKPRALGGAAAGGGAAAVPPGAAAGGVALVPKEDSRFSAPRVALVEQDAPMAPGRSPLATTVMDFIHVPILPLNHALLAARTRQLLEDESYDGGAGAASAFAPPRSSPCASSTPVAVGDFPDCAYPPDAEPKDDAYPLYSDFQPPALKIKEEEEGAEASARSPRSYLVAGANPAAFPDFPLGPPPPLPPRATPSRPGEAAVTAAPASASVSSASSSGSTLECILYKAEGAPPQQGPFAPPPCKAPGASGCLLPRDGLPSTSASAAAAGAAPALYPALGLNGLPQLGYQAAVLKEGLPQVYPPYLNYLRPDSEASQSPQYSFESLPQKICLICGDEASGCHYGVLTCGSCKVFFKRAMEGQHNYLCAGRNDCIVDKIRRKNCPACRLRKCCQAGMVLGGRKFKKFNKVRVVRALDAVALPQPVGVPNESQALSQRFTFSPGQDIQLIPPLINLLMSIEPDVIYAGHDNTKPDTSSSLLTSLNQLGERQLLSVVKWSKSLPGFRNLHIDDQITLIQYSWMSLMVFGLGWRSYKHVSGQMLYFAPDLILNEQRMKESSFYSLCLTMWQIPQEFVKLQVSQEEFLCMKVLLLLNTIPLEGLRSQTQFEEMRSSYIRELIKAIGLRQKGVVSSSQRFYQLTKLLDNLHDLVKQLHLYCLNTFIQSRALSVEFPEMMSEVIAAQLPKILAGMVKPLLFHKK

B1: TR2: human testicular orphan nuclear receptor 2, 603 amino acids (protein, UniProt P13056 1-603, looked up)
chain: MATIEEIAHQIIEQQMGEIVTEQQTGQKIQIVTALDHNTQGKQFILTNHDGSTPSKVILARQDSTPGKVFLTTPDAAGVNQLFFTTPDLSAQHLQLLTDNSPDQGPNKVFDLCVVCGDKASGRHYGAVTCEGCKGFFKRSIRKNLVYSCRGSKDCIINKHHRNRCQYCRLQRCIAFGMKQDSVQCERKPIEVSREKSSNCAASTEKIYIRKDLRSPLTATPTFVTDSESTRSTGLLDSGMFMNIHPSGVKTESAVLMTSDKAESCQGDLSTLANVVTSLANLGKTKDLSQNSNEMSMIESLSNDDTSLCEFQEMQTNGDVSRAFDTLAKALNPGESTACQSSVAGMEGSVHLITGDSSINYTEKEGPLLSDSHVAFRLTMPSPMPEYLNVHYIGESASRLLFLSMHWALSIPSFQALGQENSISLVKAYWNELFTLGLAQCWQVMNVATILATFVNCLHNSLQQDKMSTERRKLLMEHIFKLQEFCNSMVKLCIDGYEYAYLKAIVLFSPDHPSLENMEQIEKFQEKAYVEFQDYITKTYPDDTYRLSRLLLRLPALRLMNATITEELFFKGLIGNIRIDSVIPHILKMEPADYNSQIIGHSI
modifications: full-length
notes: human testicular orphan nuclear receptor 2, 603 amino acids
B2: TR4: human testicular orphan nuclear receptor 4, SEQ ID NO:16; expressed from plasmid or in vitro translated (protein)
chain: MTSPSPRIQIISTDSAVASPQRIQGSEPASGPLSVFTSLNKEKIVTDQQTGQKIQIVTAVDASGSPKQQFILTSPDGAGTGKVILASPETSSAKQLIFTTSDNLVPGRIQIVTDSASVERLLGKTDVQRPQVVEYCVVCGDKASGRHYGAVSCEGCKGFFKRSVRKNLTYSCRSSQDCIINKHHRNRCQFCRLKKCLEMGMKMESVQSERKPFDVQREKPSNCAASTEKIYIRKDLRSPLIATPTFVADKDGARQTGLLDPGMLVNIQQPLIREDGTVLLATDSKAETSQGALGTLANVVTSLANLSESLNNGDTSEIQPEDQSASEITRAFDTLAKALNTTDSSSSPSLADGIDTSGGGSIHVISRDQSTPIIEVEGPLLSDTHVTFKLTMPSPMPEYLNVHYICESASRLLFLSMHRARSIPAFQGLGQDCNTSLVRACWNELFTLGLAQCAQVMSLSTILAAIVNHLQNSIQEDKLSGDRIKQVMEHIWKLQEFCNSMANWDIDGYEYAYLKAIVLFSPDHPGLTSTSQIEKFQEKAQMELQDYVQKTYSEDTYRLARILVRLPALRLMSSNITEELFFTGLIGNVSIDSIIPYILKMETAEYNGQITGVSL

Columns and labels:
ER = target: T1, ER; experiment: ER-mediated transactivation reporter assay (ERE-CAT / ERE-Luc); format: cell-based; details: for Activity ER (effect of regulator on transcription activity): Table 5
Experimental: Transfections and chloramphenicol acetyltransferase (CAT) assays were performed as described previously. Yeh, & Chang, Proc. Natl. Acad. Sci. 93, 5517-5521 (1996). Briefly, 4×10^5 cells were plated in 60-mm dishes and cultured for 24 h, and then the medium was changed to phenol red free DMEM with 5% charcoal-stripped FCS 2 h before transfection. The cells were co-transfected with TR2 and/or ER expression plasmids with 2 μg of TR2-TK-CAT reporter or 1 μg of ERE-CAT reporter gene plasmid, as indicated in the Figures, by using the calcium phosphate precipitation method. A β-gal actosidase expression plasmid, pCMV-β-gal, was transfected in all transfections as an internal control for normalizing transfection efficiency. The total amount of DNA was adjusted up to 10.5 μg with parent vectors, pSG5 or pCMV in each transcriptional activity assay. […] The cells were then harvested and whole cell extracts were used for CAT assay. The CAT activity was quantitated by Phosphorlmager (Molecular Dynamics). Data are presented as means±S.D. of at least three independent experiments.
Transfections and chloramphenicol acetyltransferase (CAT) assays were performed using the calcium phosphate precipitation method, as described previously (Yeh, S. et al. (2000) Proc. Natl. Acad. Sci. USA 97, 11256-61). CAT reporter plasmids containing one copy of estrogen response element (ERE-CAT), or mouse mammary tumor virus (MMTV-CAT) were used as indicated. Also, a β-galactosidase expression plasmid, pCMV-β-gal, was used for transfection efficiency.
H1299 and MCF-7 cells were maintained in Dulbecco's modified eagle medium (DMEM) containing penicillin (25 units/ml), streptomycin (25 μg/ml), and 10% fetal calf serum (FBS). Transfections were performed using the calcium phosphate precipitation method, as described previously (Lee, Y. et al. (1999) Proc. Natl. Acad Sci. USA. 96(26) 14724-9). Briefly, 3×10^5 cells were plated on 60-mm dishes for 24 h before transfection, and the medium was changed to DMEM with 10% charcoal/dextran-stripped FBS. H1299 cells were transfected with an ER expression plasmid (pSG5-ER or pCMV-mERβ, ERE-chloramphenicol acetyltransferase (ERE-CAT) or pSG5-PR and MMTV-Luciferase reporter plasmid, and a TR4 expression plasmid (pCMV-TR4) ERZ-CAT Bradshaw et al., (1991) J. Biol. Chem. 266:16684-16690 and pCMVB-gal and PSV-RL from promega, all of which are herein incorporated by reference at least for material related to plasmids and assays, including sequence.) MCF-7 cells were only transfected with ERE-CAT reporter and TR4 expression plasmid. For all transfection experiments, pCMVβ-gal (CAT assay) or pSV-40 RL (Luciferase assay) was used as an internal control for transfection efficiency and the total amount of transfected DNA was adjusted to 12 μg with pCMV. […] After another 24 h, the cells were harvested for CAT assay or Luciferase assay. The CAT activity was visualized by Phosphorlmager (Molecular Dynamics) and quantitated by IMAGEQUANT software (Molecular Dynamics). The luciferase activity was determined by the Luminometer (Turner Designs).

PR = target: T2, PR; experiment: PR-mediated transactivation (MMTV reporter); format: cell-based

Molecule	Effect on TR2-mediated suppression of ER transcription (ERE-CAT) (ER; MCF7-TR2 cells, E2 and doxycycline)	ER transcription (ERE-luciferase) (ER; MCF7 cells, increasing amounts of plasmid)	PR-mediated transactivation (MMTV-CAT) (PR; H1299 cells, 10^−8 M progesterone, increasing TR2)	PR-mediated transcription (MMTV-CAT) (PR; T47D cells, Example 2)	E2-induced ER transcription (ERE-CAT) (ER; MCF7-TR2 cells, doxycycline-induced TR2)	ERE-CAT activity, transfected ER (ER; PC-3 and H1299 cells, 10 nM E2, increasing TR2 expression vector)	Endogenous ER-mediated ERE-CAT activity (ER; T47D cells, increasing TR2 expression plasmid)	Activity ER (effect of regulator on transcription activity) (ER)	ER-mediated transcription (ERE-CAT or ERE-luciferase) (ER; exogenous ER (PC-3, H1299) or endogenous ER (MCF7, T47D), Example 2)	PR-mediated MMTV-LUC reporter activity (PR; H1299 cells, 10 nM progesterone, increasing TR4)	E2-induced ERE-CAT activity, ERα (ER; H1299 cells, 10 nM E2, increasing TR4 expression plasmid)	ER transactivation (ERE-CAT) (ER; H1299 cells, ERα, 10 nM E2, full-length or C-terminal deletion TR4)	ERE-CAT activity (ER; MCF-7-TR4 cells, 2 μg/ml Dox-induced TR4)	Endogenous ER-mediated CAT reporter activity (ER; MCF-7 cells, increasing TR4)
ER-#6: interaction blocker, ER fragment aa 312-340, as HA-tagged peptide, expression plasmid or cleaved peptide (ADQMVSALLDAEPPILYSEYDPTRPFSEA; also: HA tag (position not given here); UniProt P03372 312-340, looked up, fragment)	reversing this suppression	enhance ER transcription	–	–	–	–	–	–	–	–	–	–	–	–
B1	–	–	little effect	marginal effect	significantly repressed	suppression of ER transactivation in a dose-dependent manner	repress	Down	consistently suppressed	–	–	–	–	–
B2	–	–	–	–	–	–	–	Down	–	failed to suppress	suppression of the E2-induced CAT activity in a dose-dependent manner	repress ER transactivation in a dose-dependent manner	repress	gradual decrease
